Results: patent US20220259593A1, “CONTROL OF MAMMALIAN GENE DOSAGE USING CRISPR” (The Regents of the University of California, priority 2019, published 2022)
Where a chain is given by its changes, count along the chain named.

B1: cr658 (nucleic acid)
guide: GTTTAAGAGCTAAGCTGGAAACAGCATAGCAAGTTTAAATAAGGATATTCCGTTATCAATTCGAAAGAATGGCACCGAGTCGGTGCT
modifications: listed as DNA, chemistry not fully specified
B2: cr885 (nucleic acid)
guide: B1 guide with A31C, A45C, T48G, T60C, C62T, G67A, A69G, G71T
modifications: listed as DNA, chemistry not fully specified
B3: cr679 (nucleic acid)
guide: B1 guide with G29T, A45C, T48G, T53G, T60C, C62T, G67A, A69G
modifications: listed as DNA, chemistry not fully specified
B4: cr607 (nucleic acid)
guide: B1 guide with A45C, T48G, T60C, C62T, G67A, A69G, G79A, T80C
modifications: listed as DNA, chemistry not fully specified
B5: cr639 (nucleic acid)
guide: B1 guide with T60C, C62T, G67A, A69G
modifications: listed as DNA, chemistry not fully specified
B6: cr189 (nucleic acid)
guide: B1 guide with A45C, T48G, T60C, C62T, G67A, A69G, G77A
modifications: listed as DNA, chemistry not fully specified
B7: cr962 (nucleic acid)
guide: B1 guide with A45C, T48G, T60C, C62T, G67A, A69G, C73G, G77C, C81G, G85C
modifications: listed as DNA, chemistry not fully specified
B8: cr273 (nucleic acid)
guide: B1 guide with G44T, A45C, T48G, C50A, T60C, C62T, A65G, G67A, A69G
modifications: listed as DNA, chemistry not fully specified
B9: cr549 (nucleic acid)
guide: B1 guide with A45C, T48G, T60C, T61C, C62T, G67A, A68G, A69G
modifications: listed as DNA, chemistry not fully specified
B10: cr279 (nucleic acid)
guide: B1 guide with A45C, T48G, T60C, C62T, G67A, A69G, T80C, T87C
modifications: listed as DNA, chemistry not fully specified
B11: cr552 (nucleic acid)
guide: B1 guide with A45C, T48G, T53A, A55G, T56G, T60C, C62T, G67A, A69G
modifications: listed as DNA, chemistry not fully specified
B12: cr848 (nucleic acid)
guide: B1 guide with A45C, T48G, T60C, C62T, A65G, G67A, A69G, A78G
modifications: listed as DNA, chemistry not fully specified
B13: cr441 (nucleic acid)
guide: B1 guide with A45C, T48G, C57A, T60C, C62T, G67A, A69G
modifications: listed as DNA, chemistry not fully specified
B14: cr650 (nucleic acid)
guide: B1 guide with A45C, T48G, C57G, T60C, C62T, G67A, A69G
modifications: listed as DNA, chemistry not fully specified
B15: cr793 (nucleic acid)
guide: B1 guide with A45C, T48G, T60C, C62T, G67A, A69G, G83T
modifications: listed as DNA, chemistry not fully specified
B16: cr501 (nucleic acid)
guide: B1 guide with A45C, T48G, T60C, C62T, A65G, G67A, A69G, G72T, C86A
modifications: listed as DNA, chemistry not fully specified
B17: cr442 (nucleic acid)
guide: B1 guide with T34C, A45C, T48G, T60C, T61C, C62T, G67A, A68G, A69G
modifications: listed as DNA, chemistry not fully specified
B18: cr017 (nucleic acid)
guide: B1 guide with A6G, A45C, T48G, T60C, C62T, G67A, A69G
modifications: listed as DNA, chemistry not fully specified
B19: cr667 (nucleic acid)
guide: B1 guide with T34C, A45C, T48G, T60C, A69G
modifications: listed as DNA, chemistry not fully specified
B20: cr861 (nucleic acid)
guide: B1 guide with A45C, T48G, T56G, T60C, C62T, G67A, A69G, G71A
modifications: listed as DNA, chemistry not fully specified
B21: cr212 (nucleic acid)
guide: B1 guide with G33A, A45C, T48G, T60C, C62T, A66G, G67A, A69G
modifications: listed as DNA, chemistry not fully specified
B22: cr917 (nucleic acid)
guide: B1 guide with A45T, T48A, T60C, C62T, G67A, A69G, C75T, G77T, C81A, G83A
modifications: listed as DNA, chemistry not fully specified
B23: cr026 (nucleic acid)
guide: B1 guide with A5G, G7T, A45C, T48G, T60C, C62T, G67A, A69G
modifications: listed as DNA, chemistry not fully specified
B24: cr213 (nucleic acid)
guide: B1 guide with G29A, A42G, A45C, T48G, T60C, C62T, A65G, G67A, A69G
modifications: listed as DNA, chemistry not fully specified
B25: cr937 (nucleic acid)
guide: B1 guide with A45G, T48C, T60C, A69G, C76A, G82T
modifications: listed as DNA, chemistry not fully specified
B26: cr227 (nucleic acid)
guide: B1 guide with A45C, T48G, T53C, T56A, A58C, T60C, C62T, G67A, A69G
modifications: listed as DNA, chemistry not fully specified
B27: cr746 (nucleic acid)
guide: B1 guide with G33A, A45C, T48G, T60C, C62T, A65C, G67A, A69G
modifications: listed as DNA, chemistry not fully specified
B28: cr451 (nucleic acid)
guide: B1 guide with T60C, C62T, G67A, A69G, A74T, T84A
modifications: listed as DNA, chemistry not fully specified
B29: cr815 (nucleic acid)
guide: B1 guide with A45C, T48G, T60C, C62T, G67A, A69G, G83A
modifications: listed as DNA, chemistry not fully specified
B30: cr913 (nucleic acid)
guide: B1 guide with T40C, A45C, T48G, T60C, C62T, G67A, A69G
modifications: listed as DNA, chemistry not fully specified
B31: cr699 (nucleic acid)
guide: B1 guide with A45G, T48C, T60C, T61G, A68C, A69G
modifications: listed as DNA, chemistry not fully specified
B32: cr293 (nucleic acid)
guide: B1 guide with A45C, T48G, T60C, C62T, G67A, A69G, C73G, G77A, C81T, G85C
modifications: listed as DNA, chemistry not fully specified
B33: cr840 (nucleic acid)
guide: B1 guide with A45C, T48G, T60C, C62T, A65G, G67A, A69G, G71A
modifications: listed as DNA, chemistry not fully specified
B34: cr133 (nucleic acid)
guide: B1 guide with A45C, T46A, T48G, T49C, T60C, C62T, G67A, A69G
modifications: listed as DNA, chemistry not fully specified
B35: cr086 (nucleic acid)
guide: B1 guide with A6C, G7T, A45C, T48G, T60C, C62T, G67A, A69G
modifications: listed as DNA, chemistry not fully specified
B36: cr406 (nucleic acid)
guide: B1 guide with A45C, T48G, C57T, T60C, C62T, G67A, A69G
modifications: listed as DNA, chemistry not fully specified
B37: cr001 (nucleic acid)
guide: B1 guide with G1A, A45C, T48G, T60C, C62T, G67A, A69G
modifications: listed as DNA, chemistry not fully specified
B38: cr766 (nucleic acid)
guide: B1 guide with A45C, T48G, T60C, T61A, C62T, G67A, A68T, A69G
modifications: listed as DNA, chemistry not fully specified
B39: cr877 (nucleic acid)
guide: GTTTAAGAGCTAAGCTGGAAACAGCATAGCAAGTTTAAATAAGGCTAGTCCGTTATCAACCTGAAAAGGTGCCACGGAGTCCGTGGT
modifications: listed as DNA, chemistry not fully specified
B40: cr844 (nucleic acid)
guide: B39 guide with A59G, C61T, G68A, T70C, C72G, C75T, G76T, C82A, G83A, G86C
modifications: listed as DNA, chemistry not fully specified
B41: cr437 (nucleic acid)
guide: B39 guide with C61G, G68C, C72G, G76A, G77C, C81G, C82T, G86C
modifications: listed as DNA, chemistry not fully specified

system: K562 CRISPRi cells; experiment: Constant region variant library pooled growth screen, K562; assay type: cell-based, human; conditions: sgRNA constant region variants; activity relative to the original, un-modified constant region cr995
Outline: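 Relative activity expresses each targeting sequence:constant region pair's phenotype over that of the unmodified constant region. Pooled growth screen ran in K562 CRISPRi cells in duplicate spinner-flask replicates, with puromycin selection and 4–8 days' growth at >2000× coverage; library paired variants with 36 targeting sequences.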

| Molecule | Mean relative activity |
| --- | --- |
| B1 | 0.6883 |
| B2 | 0.6498 |
| B3 | 0.6292 |
| B4 | 0.6847 |
| B5 | 0.6057 |
| B6 | 0.627 |
| B7 | 0.6733 |
| B8 | 0.6725 |
| B9 | 1.051 |
| B10 | 0.6783 |
| B11 | 0.6864 |
| B12 | 0.6714 |
| B13 | 0.622 |
| B14 | 0.6158 |
| B15 | 0.6343 |
| B16 | 1.052 |
| B17 | 0.6169 |
| B18 | 0.639 |
| B19 | 0.6533 |
| B20 | 0.6319 |
| B21 | 0.6035 |

| Molecule | Mean relative activity |
| --- | --- |
| B22 | 0.6521 |
| B23 | 0.6314 |
| B24 | 0.6325 |
| B25 | 0.6137 |
| B26 | 0.6062 |
| B27 | 0.629 |
| B28 | 0.6053 |
| B29 | 0.6583 |
| B30 | 0.633 |
| B31 | 0.6628 |
| B32 | 1.052 |
| B33 | 0.6688 |
| B34 | 0.6664 |
| B35 | 0.614 |
| B36 | 0.6285 |
| B37 | 0.6312 |
| B38 | 1.051 |
| B39 | 0.686 |
| B40 | 0.6346 |
| B41 | 0.6854 |
